Measured values from the supplement of paper PMC10567573.

B1: TPD52L2 (parent)
chain: EAEEEELRAELTKVEEEIVTLRQV

Variants of: B1
Test: protein stability index of a GFP-peptide fusion (GPS, HEK-293T) (PSI 1-6); higher = more stable
Conditions: c terminus: a fixed tail appended
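Further: lentivirally expressed fusions sorted by FACS into six bins by GFP to DsRed ratio, PSI derived from sequencing read proportions per bin multiplied by bin number.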

Protein stability index of substitutions, site by site:
R8: L 3.6, D 4.91, P 5.43, S 4.79, C 4.16, A 4.23, E 4.84, W 2.59, G 4.55, H 3.91, V 3.97, Y 3.41, K 4.59, M 3.79, F 3.66, Q 3.96, N 4.51, I 3.83, T 5.17
K13: Y 4.08, W 4.21, M 4.18, F 4.25, H 5.04, E 5.82, S 4.54, N 5.26, T 5.15, R 3.27, G 5.18, L 4.06, P 5.55, C 5.11, I 3.5, Q 4.55, D 5.76, V 4.33, A 3.96
V19: Y 3.71, Q 3.04, H 3.9, I 2.96, R 3.88, G 4.79, C 3.78, F 3.27, T 4.44, N 4.51, A 3.96, S 3.98, P 5.45, W 2.54, K 3.89, E 4.21, D 4.82, L 3.69, M 3.52
A9: V 3.74, L 2.62, F 2.4, E 4.34, R 3.64, P 5.11, H 2.82, T 3.67, M 2.95, Y 3.44, N 3.79, G 4.9, K 3.68, Q 4, S 4.32, D 3.93, W 2.51, I 2.37, C 3.98
E16: H 3.87, A 3.85, W 2.66, L 3.06, Y 1.82, D 4.17, V 3.27, C 3.82, S 3.46, F 2.76, N 3.93, P 4.79, I 2.61, G 4.84, M 2.59, R 2.79, Q 3.52, K 3.25, T 4.33
T12: R 3.12, G 4.8, W 2.1, M 2.65, F 3.83, I 3.51, H 3.51, P 5.06, D 4.91, K 3.75, L 3.08, A 3.35, Q 3.87, V 4.06, S 3.75, E 4.22, C 3.63, Y 3.39, N 3.9
E10: S 3.49, P 5.46, M 3.3, K 4.91, Q 3.98, C 4.84, D 4.36, I 2, R 4.11, T 3.21, N 4.91, G 5.34, F 3.64, A 3.05, Y 4.05, L 2.96, V 2.72, H 4.38
R22: E 4.25, Y 2.54, D 3.54, I 2.44, T 4.18, N 3.9, L 3.06, M 3.17, S 4.37, P 4.85, W 2.92, C 3.66, Q 3.77, A 4.54, V 3.4, G 3.79, K 3.8, H 3.96, F 2.33
V24: T 4.39, R 4.39, N 4.72, P 4.65, Q 4.14, E 4.35, G 3.41, M 3.42, L 3.78, K 4.87, D 5.2, A 4.41, W 3.89, S 4.52, H 3.92, F 3.25, C 3.63, I 4.13
V14: F 5.01, L 3.82, T 4.37, Q 5.59, S 4.42, K 5.72, G 3.76, N 5.33, P 5.75, H 5.7, M 4.43, D 4.74, C 3.54, E 5.67, Y 5.05, R 5.35, W 4.05, I 3.57, A 4.05
E17: D 5.55, Y 2.35, A 4.14, G 5.32, L 4.24, V 4.05, R 4.62, T 4.63, Q 3.86, F 2.87, I 3.46, W 2.28, S 4.29, M 4.02, P 4.66, N 4.54, K 4.67, C 4.63, H 3.44
Q23: P 4.58, N 4.21, S 3.61, M 3.65, Y 5.02, C 3.9, D 4.43, E 3.82, K 4.04, H 3.6, R 3.73, V 3.11, T 4.06, G 4.54, W 4.35, A 3.56, F 3.19, L 3.25, I 2.98
T20: C 3.46, E 3.84, L 2.91, G 3.86, A 3.9, V 3.92, F 2.85, R 3.3, N 3.34, K 3.44, I 3.06, S 3.56, Y 2.77, W 2.99, P 4.98, M 2.92, Q 4.04, H 3.56, D 5.3
L21: K 5.86, C 4.72, A 4.96, E 5.4, N 5.73, P 5.57, S 5.68, H 4.08, T 5.65, Q 5.13, V 5.22, W 3.63, I 4.25, M 4.72, G 5.24, D 5.73, R 5.56, F 4.09, Y 3.34
L7: Y 5.29, S 5.58, V 5.77, P 5.55, H 5.2, W 4.92, M 5.21, N 5.41, Q 5.62, K 5.49, R 5.49, I 5.39, T 5.39
E15: L 1.83, T 4.63, Q 4.9, P 5.04, F 3.61, C 3.94, Y 3.24, G 5.31, S 4.39, I 1.81, H 5.12, M 2.91, A 4.41, R 4.72, V 2.8, K 5.01, W 3.03, N 5.27, D 5.55
L11: R 5.22, N 5.25, H 5.43, Y 5.51, D 5.92, P 5.64, A 5.8, S 5.65, W 5, E 4.83, V 5.2, C 5.5, F 5.09, Q 5.67, I 4.98, K 5.55, T 5.33, M 3.99, G 5.38
I18: V 5.35, P 5.69, K 5.19, E 5.86, S 5.45, A 5.93, W 5.09, F 4.52, T 5.19, R 5.71, D 5.66, Y 5.12, C 4.55, M 5.11, Q 5.41, L 3.92, G 5.67, N 4.93, H 5.24
